Experiment [1] deals with recombinant full-length P. aeruginosa PcrV (GenScript) (Pseudomonas aeruginosa).
The target of experiment [2] is Zika virus envelope (Env) protein on MR766 virus (Zika virus MR766, UniProt Q32ZE1 291-790). The experiment is described as follows: cell-based or functional assay.
Experiment [3] has as its target PcrV of P. aeruginosa strain 6077 (on live bacteria) (Pseudomonas aeruginosa strain 6077). The experiment is described as follows: cell-based or functional assay.
The next experiment has as its target T1, Zika (prM80E)-mmh (Zika virus).
T1 construct: domain: prM80E; also called Zika envelope protein; Lot #REGN4233-L4
Nature of the experiment: ELISA, Zika (prM80E)-mmh coated, mouse serum, anti-human IgG HRP detection. In general terms: An ELISA detects its analyte on a solid surface through an enzyme-linked reagent.

Several values for one entry are separate records, joined by “and”; a condition that tells them apart may be missing. Identical values can stand only once.

B1: REGN4446 anti-Zika antibody expressed in mouse serum from episomal AAV2/8.CASI.REGN4446 HC T2A RORss LC (antibody, V domains shown)
VH: QVQLVESGGGVVQPGRSLRLSCAASGFTFNYYGMHWVRQAPGKGLEWVAVISYDGTNKYYADSVKGRFTTSRDNSKNTLYLQMNSLRAEDTALYYCARDRGGRFDYWGQGIQVTVSS
VL: EIVLTQSPDTLSLSPGERATLSCRASQSVSSNYLAWYQQKPGQAPRLLIYGASSRATGIPDRFSGSGSGTDFTLTISRLEPEDFAVYYCQRYGTSPLTFGGGTKVEIKR
notes: also called CASI HC T2A RORss LC; AAV2/8.CASI.REGN4446 HC T2A LC
The EC50 is the midpoint of the concentration-response curve. For B1, the 50% effective concentration (EC50) in experiment [1] is 204 nM; in the experiment with Zika (prM80E)-mmh, 0.296 nM and 0.521 nM. The “Neutralization EC50” value in experiment [2] is 0.469 nM and 0.605 nM. Also, in experiment [3], the “Neutralization IC50” value was about 0.00889 nM.
